These results are taken from article PMC6965176, “Targeting Forward and Reverse EphB4/EFNB2 Signaling by a Peptide with Dual Functions” (Scientific Reports, 2020).

For series [1], the target named is T1, EphB4 (Homo sapiens, UniProt P54760).
T1 construct: purchased R&D Systems
T1 sequence (P54760 16-987): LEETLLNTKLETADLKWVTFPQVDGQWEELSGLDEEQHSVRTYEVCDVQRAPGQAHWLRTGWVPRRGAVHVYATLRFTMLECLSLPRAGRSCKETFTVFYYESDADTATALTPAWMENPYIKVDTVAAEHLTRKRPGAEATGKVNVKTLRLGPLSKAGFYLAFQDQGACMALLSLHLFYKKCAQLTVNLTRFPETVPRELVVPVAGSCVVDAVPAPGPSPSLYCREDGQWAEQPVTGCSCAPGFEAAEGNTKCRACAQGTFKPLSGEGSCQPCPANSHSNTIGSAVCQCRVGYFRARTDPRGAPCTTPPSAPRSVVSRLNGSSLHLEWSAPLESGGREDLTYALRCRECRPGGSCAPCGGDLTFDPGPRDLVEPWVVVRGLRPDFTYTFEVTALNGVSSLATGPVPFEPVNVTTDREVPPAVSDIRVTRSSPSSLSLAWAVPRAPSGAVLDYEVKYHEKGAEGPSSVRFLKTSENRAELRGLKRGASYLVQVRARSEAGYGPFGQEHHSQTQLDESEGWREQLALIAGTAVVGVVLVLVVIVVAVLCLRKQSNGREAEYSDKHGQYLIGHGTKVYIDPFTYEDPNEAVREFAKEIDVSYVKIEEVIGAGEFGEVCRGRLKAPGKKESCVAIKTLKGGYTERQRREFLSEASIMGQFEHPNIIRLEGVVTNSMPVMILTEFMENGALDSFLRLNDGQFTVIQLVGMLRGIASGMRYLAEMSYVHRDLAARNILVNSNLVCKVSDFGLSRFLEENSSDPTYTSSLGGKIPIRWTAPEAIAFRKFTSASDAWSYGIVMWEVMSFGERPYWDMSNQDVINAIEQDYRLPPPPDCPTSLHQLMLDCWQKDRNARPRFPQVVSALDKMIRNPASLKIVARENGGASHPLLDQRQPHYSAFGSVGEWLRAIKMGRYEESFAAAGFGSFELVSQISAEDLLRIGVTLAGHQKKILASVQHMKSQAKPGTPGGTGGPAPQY
The series can be described thus: SPR (BIACore) binding of peptides to immobilized EphB4. As to conditions: rhEphB4-coated chips, 0.16-20 nM equivalent BIDEN-AP, duplicate, visual inspection; poor fitting to 1:1 or 1:2 models (Fig. 3B). The text has this: Surface plasmon resonance (SPR) binding and competition assays.
Immunoblotting, immunoprecipitation, and co-immunoprecipitation.
(In SPR one partner is held on a chip, and binding of the other changes the refractive index at the surface.)

Series [2] can be described thus: Transmission electron microscopy particle size. Format: physicochemical. The conditions noted are these: transmission electron microscopy (Fig. 3C). As to the method:
examined with a JEM 1010 transmission electron microscope (JEOL USA, Inc., Peabody, MA) at an accelerating voltage of 80 kV. Digital images were obtained using the AMT Imaging System (Advanced Microscopy Techniques Corp., Danvers, MA).
Surface plasmon resonance (SPR) binding and competition assays. A stock solution of EphB4 in PBS (100 µg/mL) was diluted to 25 µg/mL with 10 mM sodium acetate buffer (pH 4.5) and immobilized to CM5 sensor chips using the amine coupling reaction according to manufacturer-provided procedures (BIACore). Briefly, the surfaces of the chips in flow cells (FC)- 1 and FC-2 were activated by exposing chips to a mixture of 200 mM N-ethyl-N’- dimethylaminopropyl carbodiimide and 50 mM N-hydroxysuccinimide for 7 min. FC-1 was used as a reference surface and was directly deactivated by injecting 1 M ethanolamine at pH 8.5 for 7 min. […]
Binding assays were performed in duplicate at 25°C in HBSEP running buffer. […] Thus, all analyzed samples, including a sample of the running buffer, were additionally injected onto an uncoated reference surface. The association rate (Kon) and dissociation rate (Koff) were calculated by fitting binding chromatogram data using the BIACore evaluation software with a 1:1 Langmuir binding model. […]

Non-standard residues stand in square brackets, D forms with d. No end group written: not given here.

Turning to “CCPM-BIDEN-AP: nanoconjugate of BIDEN-AP with core-crosslinked polymeric micelles (CCPM) (TN[dY]LFSPNGPIARAW; also: conjugated to core-crosslinked polymeric micelles (CCPM))”, in series [1], the “binding avidity to immobilized EphB4 (SPR sensorgrams)” value was “stronger binding avidity to EphB4 than the unconjugated BIDEN-AP peptide”. This substance also came in with a mean diameter in series [2] of 24 ± 3 nm.
